For the test, the target named is T1, EGFR L858R peptide on HLA-A*03:01 (human).
T1 peptide: KITDFGRAK
Kind of test: multimer staining.

B1: TCR4 (TCR, V domains shown)
Valpha: QKEVEQNSGPLSVPEGAIASLNCTYSDRGSQSFFWYRQYSGKSPELIMSIYSNGDKEDGRFTAQLNKASQYVSLLIRDSQPSDSATYLCAVSATGFQKLVFGTGTRLLVSP
Vbeta: QVTQNPRYLITVTGKKLTVTCSQNMNHEYMSWYRQDPGLGLRQIYYSMNVEVTDKGDVPEGYKVSRKEKRNFPLILESPSPNQTSLYFCASTADRGGNEQFFGPGTRLTVL
With B1, the binding result is “recognises”.

B2: TCR3 (TCR, V domains shown)
Valpha: ENVEQHPSTLSVQEGDSAVIKCTYSDSASNYFPWYKQELGKRPQLIIDIRSNVGEKKDQRIAVTLNKTAKHFSLHITETQPEDSAVYFCAADMRFGAGTRLTVKP
Vbeta: GVTQTPKFRILKIGQSMTLQCTQDMNHNYMYWYRQDPGMGLKLIYYSVGAGITDKGEVPNGYNVSRSTTEDFPLRLELAAPSQTSVYFCASSYSRDSIREQYFGPGTRLTVT
For the molecule B2, the binding result is on record as “recognises”.
